# Test results from article PMC3711439, “Mechanisms of in vivo binding site selection of the hematopoietic master transcription factor PU.1”.
# Target: PU.1 (human, UniProt P17947 1-270)
# Experiment: MST; MST: 20 mM Tris-HCl pH 7.6, 1.5 mM MgCl2, 0.5 mM EGTA, 10% glycerol, 300 mM KCl, 10 mM DTT, 25 C; 50 nM Cy3-dsDNA, PU.1 1:1 dilutions from 23 uM
# Details: protein: recombinant; tags: N-terminal His-tag; label: Cy3 on upper strand
row,Binder,Kd [nM]
1,PU.1 motif oligo 9 (dsDNA) DNA 1: ACGTCACTTCCTCTCAACGT DNA 2: ACGTTGAGAGGAAGTGACGT,676 ± 67
2,PU.1 motif oligo 75 (dsDNA) DNA 1: ACGTCAGTTCTGCATTACGT DNA 2: ACGTAATGCAGAACTGACGT,1190 ± 140
3,PU.1 motif oligo 59 (dsDNA) DNA 1: ACGTAACTTCTTCCTTACGT DNA 2: ACGTAAGGAAGAAGTTACGT,1620 ± 20
4,PU.1 motif oligo 50 (dsDNA) DNA 1: ACGTCTCTTCCCCTCTACGT DNA 2: ACGTAGAGGGGAAGAGACGT,2120 ± 890
5,PU.1 motif oligo 48 (dsDNA) DNA 1: ACGTCACTTCTGCTTTACGT DNA 2: ACGTAAAGCAGAAGTGACGT,600 ± 7
6,PU.1 motif oligo 65 (dsDNA) DNA 1: ACGTTTCTTCCTCTTCACGT DNA 2: ACGTGAAGAGGAAGAAACGT,872 ± 57
7,PU.1 motif oligo 49 (dsDNA) DNA 1: ACGTCAGTTCCTCCTGACGT DNA 2: ACGTCAGGAGGAACTGACGT,929 ± 222
8,PU.1 motif oligo 43 (dsDNA) DNA 1: ACGTCACTTCCTCTGGACGT DNA 2: ACGTCCAGAGGAAGTGACGT,822 ± 289
9,PU.1 motif oligo 44 (dsDNA) DNA 1: ACGTCACTTCTCTTTTACGT DNA 2: ACGTAAAAGAGAAGTGACGT,770 ± 174
10,PU.1 motif oligo 57 (dsDNA) DNA 1: ACGTGAGTTCCTTTAAACGT DNA 2: ACGTTTAAAGGAACTCACGT,1660 ± 170
11,PU.1 motif oligo 62 (dsDNA) DNA 1: ACGTCTCTTCCTCCCTACGT DNA 2: ACGTAGGGAGGAAGAGACGT,1940 ± 1260
12,PU.1 motif oligo 68 (dsDNA) DNA 1: ACGTGACTTCTGCTTTACGT DNA 2: ACGTAAAGCAGAAGTCACGT,828 ± 51
13,PU.1 motif oligo 66 (dsDNA) DNA 1: ACGTCAGTTCTCTTTTACGT DNA 2: ACGTAAAAGAGAACTGACGT,2000 ± 40
14,PU.1 motif oligo 45 (dsDNA) DNA 1: ACGTCATTTCCTCCTTACGT DNA 2: ACGTAAGGAGGAAATGACGT,828 ± 8
15,PU.1 motif oligo 70 (dsDNA) DNA 1: ACGTATCTTCCTCACTACGT DNA 2: ACGTAGTGAGGAAGATACGT,2020 ± 100
16,PU.1 motif oligo 46 (dsDNA) DNA 1: ACGTCACTTCCTCCAGACGT DNA 2: ACGTCTGGAGGAAGTGACGT,634 ± 12
17,PU.1 motif oligo 33 (dsDNA) DNA 1: ACGTAACTTCCCCAATACGT DNA 2: ACGTATTGGGGAAGTTACGT,611 ± 58
18,PU.1 motif oligo 69 (dsDNA) DNA 1: ACGTCAGTTCTGCTTTACGT DNA 2: ACGTAAAGCAGAACTGACGT,909 ± 28
19,PU.1 motif oligo 55 (dsDNA) DNA 1: ACGTCACTTCCCTCCCACGT DNA 2: ACGTGGGAGGGAAGTGACGT,1010 ± 192
20,PU.1 motif oligo 35 (dsDNA) DNA 1: ACGTTGCTTCCTCTTTACGT DNA 2: ACGTAAAGAGGAAGCAACGT,414 ± 92
21,PU.1 motif oligo 4 (dsDNA) DNA 1: ACGTCACTTCCTCTATACGT DNA 2: ACGTATAGAGGAAGTGACGT,413 ± 84
22,PU.1 motif oligo 63 (dsDNA) DNA 1: ACGTCACTTCCACAGTACGT DNA 2: ACGTACTGTGGAAGTGACGT,1930 ± 220
23,PU.1 motif oligo 53 (dsDNA) DNA 1: ACGTCACTTCCATTCTACGT DNA 2: ACGTAGAATGGAAGTGACGT,4600 ± 2570
24,PU.1 motif oligo 60 (dsDNA) DNA 1: ACGTCGCTTCCTTCCTACGT DNA 2: ACGTAGGAAGGAAGCGACGT,1895 ± 10
25,PU.1 motif oligo 74 (dsDNA) DNA 1: ACGTCTCTTCCTTAAAACGT DNA 2: ACGTTTTAAGGAAGAGACGT,1150
26,PU.1 motif oligo 41 (dsDNA) DNA 1: ACGTCACTTCCTAAATACGT DNA 2: ACGTATTTAGGAAGTGACGT,620 ± 147

row,Binder,Kd [nM]
1,PU.1 motif oligo 10 (dsDNA) DNA 1: ACGTCACTTCCTGTTTACGT DNA 2: ACGTAAACAGGAAGTGACGT,175 ± 16
2,PU.1 motif oligo 51 (dsDNA) DNA 1: ACGTCACTTCCTTGTCACGT DNA 2: ACGTGACAAGGAAGTGACGT,786 ± 41
3,PU.1 motif oligo 36 (dsDNA) DNA 1: ACGTCCCTTCCTCTTTACGT DNA 2: ACGTAAAGAGGAAGGGACGT,682 ± 71
4,PU.1 motif oligo 7 (dsDNA) DNA 1: ACGTCAGTTCCTCTTTACGT DNA 2: ACGTAAAGAGGAACTGACGT,222 ± 45
5,PU.1 motif oligo 40 (dsDNA) DNA 1: ACGTCAGTTCCTTAAAACGT DNA 2: ACGTTTTAAGGAACTGACGT,808 ± 97
6,PU.1 motif oligo 71 (dsDNA) DNA 1: ACGTTGCTTCCTCCCTACGT DNA 2: ACGTAGGGAGGAAGCAACGT,2200 ± 1640
7,PU.1 motif oligo 32 (dsDNA) DNA 1: ACGTAACTTCCTCCTAACGT DNA 2: ACGTTAGGAGGAAGTTACGT,464 ± 77
8,PU.1 motif oligo 42 (dsDNA) DNA 1: ACGTCACTTCCGCCTCACGT DNA 2: ACGTGAGGCGGAAGTGACGT,656 ± 191
9,PU.1 motif oligo 5 (dsDNA) DNA 1: ACGTCACTTCCTCTCTACGT DNA 2: ACGTAGAGAGGAAGTGACGT,270 ± 23
10,PU.1 motif oligo 31 (dsDNA) DNA 1: ACGTCAGTTCCTCAAAACGT DNA 2: ACGTTTTGAGGAACTGACGT,599 ± 142
11,PU.1 motif oligo 56 (dsDNA) DNA 1: ACGTCGTTTCCTCTTTACGT DNA 2: ACGTAAAGAGGAAACGACGT,670 ± 145
12,PU.1 motif oligo 37 (dsDNA) DNA 1: ACGTCACTTCCTGCTAACGT DNA 2: ACGTTAGCAGGAAGTGACGT,794 ± 112
13,PU.1 motif oligo 54 (dsDNA) DNA 1: ACGTCTCTTCCTTTCTACGT DNA 2: ACGTAGAAAGGAAGAGACGT,1700 ± 440
14,PU.1 motif oligo 72 (dsDNA) DNA 1: ACGTAATTTCCTCATCACGT DNA 2: ACGTGATGAGGAAATTACGT,1080 ± 251
15,PU.1 motif oligo 52 (dsDNA) DNA 1: ACGTGCCTTCCTCTTTACGT DNA 2: ACGTAAAGAGGAAGGCACGT,887 ± 104
16,PU.1 motif oligo 34 (dsDNA) DNA 1: ACGTCACTTCCTCCCCACGT DNA 2: ACGTGGGGAGGAAGTGACGT,690 ± 134
17,PU.1 motif oligo 73 (dsDNA) DNA 1: ACGTAACTTCTTCAAAACGT DNA 2: ACGTTTTGAAGAAGTTACGT,1520 ± 580
18,PU.1 motif oligo 67 (dsDNA) DNA 1: ACGTGACTTCCTTCACACGT DNA 2: ACGTGTGAAGGAAGTCACGT,1240 ± 370
19,PU.1 motif oligo 61 (dsDNA) DNA 1: ACGTATCTTCCTCATAACGT DNA 2: ACGTTATGAGGAAGATACGT,790 ± 77
20,PU.1 motif oligo 8 (dsDNA) DNA 1: ACGTCACTTCCCCTTAACGT DNA 2: ACGTTAAGGGGAAGTGACGT,441 ± 18
21,PU.1 motif oligo 38 (dsDNA) DNA 1: ACGTCGCTTCCCCTTCACGT DNA 2: ACGTGAAGGGGAAGCGACGT,893 ± 116
22,PU.1 motif oligo 64 (dsDNA) DNA 1: ACGTGACTTCCACAATACGT DNA 2: ACGTATTGTGGAAGTCACGT,1220 ± 350
23,PU.1 motif oligo 6 (dsDNA) DNA 1: ACGTGACTTCCTCTTTACGT DNA 2: ACGTAAAGAGGAAGTCACGT,190 ± 31
24,PU.1 motif oligo 39 (dsDNA) DNA 1: ACGTCGCTTCCTCTCCACGT DNA 2: ACGTGGAGAGGAAGCGACGT,983 ± 94
25,PU.1 motif oligo 47 (dsDNA) DNA 1: ACGTCGCTTCCTCCTCACGT DNA 2: ACGTGAGGAGGAAGCGACGT,757 ± 186
26,PU.1 motif oligo 58 (dsDNA) DNA 1: ACGTCACTTCCCCAGGACGT DNA 2: ACGTCCTGGGGAAGTGACGT,1070 ± 229
